Measurements: article PMC7956451 (International Journal of Molecular Sciences, 2021)

Molecular target: T1, CMVpp65_(495-503)/HLA-A*02:01 single-chain trimer (SCT) protein (Homo sapiens HLA-A*02:01 (BC019236) and …, UniProt P06725;P61769;Q8WUX3, stabilised)
T1 construct: source: HEK293F, transfected, purified from culture supernatant (Ni-NTA)
Experiment: BLI; Abs (mouse IgG2a/κ) immobilised, soluble pMHC SCT as analyte; pH 7.4; Octet QKe; global fit, 1:1 Langmuir model
Conditions: both partners purified

B1: H9 TCR-like antibody in mouse IgG2a/κ format (antibody, V domains shown)
VH: EVQLVQSGAEVKKPGSSVKVSCKASGGTFSSYAISWVRQAPGQGLEWMGGIIPIFGTANYAQKFQGRVTITADESTSTAYMELSSLRSEDTAVYYCARGDLYYYDSSGYPRYYFDYWGQGTLVTVSS
VL: ETTLTQSPGTLSLSPGERATLSCRASQSVSSSYLAWYQQKPGQAPRLVIYGASSRATGIPDRFSGSGSGTDFTLTISRLEPEDFAVYYCQHYSTSPGFTFGQGTKLEIR
notes: also called parental H9; H9 Ab
  Kd: 348 ± 33 nM
  koff: 0.0022 s⁻¹
  kon: 6300 M⁻¹ s⁻¹
